Experimental data published in US5495006A, “Antiviral polynucleotide conjugates” (Allelix Biopharmaceuticals, Inc., priority 1993, dated 1996).

Legend:
[1] = tested on: HSV-1; test: Plaque reduction assay, HSV-1 in Vero cells; format: cell-based, herpes simplex virus type I; details: for % Inhibition (plaque reduction, HSV-1 replication): Vero cells, estimation
Procedure: Specifically, monolayers of cells were pretreated by incubation with one of conjugates (III) and (IV), infected with various concentrations of HSV-1 (measured by plaque forming units, PFU) and the infected cells were then incubated in the presence of conjugate. Following incubation with the conjugate, the cells were stained using the conventional crystal violet staining method. Those portions of the cell monolayer appearing as clear, unstained areas were identified as dead, virally-infected cells (i.e. plaques), while those areas stained purple indicated viable cells. Thus, inhibition of the virus was determined by counting, using a dissecting microscope, the number of plaques. The number of plaques on a plate incubated in the presence of conjugate was compared to the number of plaques on a control plate incubated in the absence of conjugate and the extent of viral inhibition was thus determined.
Vero cells (African green monkey kidney cells, ATCC CCL 81) were seeded into a 96-well plate at a concentration of 2×10^4 cells per well in 50 μl of Dulbecco's modified eagle medium (DMEM, Gibco). The media was supplemented with 10% Nu-serum (Biomedical Products), penicillin (100 IU/ml), streptomycin ([…]) and gentamicin (0.02 mg/ml) obtained from Gibco. The cells were pretreated with polynucleotide conjugate (III) at concentrations of 1 μM and 10 μM by incubation for 24 hours at 37° C. and 5% CO2. Following the incubation, the culture medium was removed from the cells. […]
The media was removed from the cells and the cells were subsequently stained with crystal violet in 70% ethanol:formalin:acetic acid (20:2:1) solution and heat fixed. The average number of plaques per well of each test sample were counted using a dissecting microscope (10-40× magnification). Inhibition was determined as the difference between the number of plaques in the control sample (0 μM conjugate) and the number of plaques in the test sample. […]

[2] = tested on: HIV-1 Tat-derived peptide RKKRRQRRRPPQGS (Human immunodeficiency virus 1); test: EMSA
[3] = target: T1, HIV-1 Tat-derived peptide RKKRRQRRRPPQGS (Human immunodeficiency virus 1); test: EMSA; 17.8% active RNA; details: protein: synthetic; tags: synthetic peptide, American Peptide Co; HIV LAI isolate; label: 5'-32P; linker-bridged hairpin with UCU bulge
T1 chain: RKKRRQRRRPPQGS

[4] = target: T2, HIV-1 Tat full-length (86 aa) (Human immunodeficiency virus 1, UniProt P04608 P04608:1-86); test: EMSA; binds efficiently; details: tags: American Bio-Technologies, Inc; label: 32P; cyclic dumbbell with UCU bulge
[5] = target: T1, HIV-1 Tat-derived peptide RKKRRQRRRPPQGS; test: EMSA; binds efficiently; details: protein: synthetic; tags: synthetic peptide, American Peptide Co; HIV LAI isolate; label: 32P; cyclic dumbbell with UCU bulge
[6] = target: T1, HIV-1 Tat-derived peptide RKKRRQRRRPPQGS; test: EMSA; Tm 60 C; details: protein: synthetic; tags: synthetic peptide, American Peptide Co; HIV LAI isolate; label: 5'-32P; linker-bridged hairpin
[7] = target: T1, HIV-1 Tat-derived peptide RKKRRQRRRPPQGS; test: EMSA; Tm 61 C; SEQ 2 in the listing appears to be printed 3'-5'; details: protein: synthetic; tags: synthetic peptide, American Peptide Co; HIV LAI isolate; label: 5'-32P; bottom-linked duplex with UCU bulge
[8] = target: T2, HIV-1 Tat full-length (86 aa); test: EMSA; pre-formed complex used for competition; details: tags: American Bio-Technologies, Inc; label: 5'-32P; hairpin with UCU bulge and 6-nt loop
[9] = target: T1, HIV-1 Tat-derived peptide RKKRRQRRRPPQGS; test: EMSA; 10 mM Tris pH 7.5, 50 mM NaCl, 1 mM DTT, 1 mM EDTA, 23 C; 45.9% active RNA; details: protein: synthetic; tags: synthetic peptide, American Peptide Co; HIV LAI isolate; label: 5'-32P; hairpin with UCU bulge and 6-nt loop
[10] = target: T1, HIV-1 Tat-derived peptide RKKRRQRRRPPQGS; test: EMSA; 40.1% active RNA; details: protein: synthetic; tags: synthetic peptide, American Peptide Co; HIV LAI isolate; label: 5'-32P; linker-bridged hairpin with UCU bulge
[11] = target: T1, HIV-1 Tat-derived peptide RKKRRQRRRPPQGS; test: EMSA; 38.3% active RNA; details: protein: synthetic; tags: synthetic peptide, American Peptide Co; HIV LAI isolate; label: 5'-32P; linker-bridged hairpin with UCU bulge

For “conjugate (III): 22-deoxyribonucleotide fully hybridized ICP4 DNA-binding site (SEQ ID NOS 6 and 7), strands joined by linker LA HO--(CH2)9--OH (chain 1 CGCTATCGTCCATACCGACCAC; chain 2 GTGGTCGGTATGGACGATAGCG; DNA, backbone not given here; strands joined by nonanediol linker)”, the “% Inhibition (plaque reduction, HSV-1 replication)” value ([1]; 1 μM conjugate) was 25%, the “% Inhibition (plaque reduction, HSV-1 replication)” value ([1]; 10 μM conjugate) was 50% and the “Inhibition of HSV-1 (in words)” value ([1]; plaque reduction assay) was “inhibit HSV-1”.

With “GGAGAUCUGAGCGCUCUCUCC [TAR conjugate 5D]” the Kd ([2]; linker D (hexaethylene glycol) replaces 6-nt loop between the two strands, 56.0% active RNA) was 0.66 nM.

In the case of “GGAGAUCUGAGCGCUCUCUCC [TAR conjugate 5B]”, the Kd ([2]; linker B (triethylene glycol) replaces 6-nt loop between the two strands, 42.6% active RNA) is reported as 0.95 nM.

B1: TAR conjugate 5CC (ssRNA)
RNA: GGAGAUCUGAGCGCUCUCUCC
modifications: two coupled linkers C replace 6-nt loop between the two strands
B1 showed a Kd [3] of 0.43 nM.

B2: cyclic TAR 31-mer (oligomer 13) (ssRNA)
RNA: UCUCCUUCGGGAGAUCUGAGCCUGGGAGCUC
modifications: cyclic (T4 RNA ligase closed)
B2: binds [4]; binds [5].

B3: TAR conjugate structure 8 (ssRNA)
RNA: GGAGAUGAGCGCUCUCUCC
modifications: bulge UCU replaced by U-Lc-Lc (two C3 linkers between nt 6 and nt 9); loop closure shown only in structure drawing
B3 gave a Kd [6] of 0.51 nM.

B4: TAR conjugate oligomer 9 (ssRNA)
RNA: GCUCUCUCCGGAGAUCUGAGC
modifications: chemical linker at bottom of duplex between the two strands
In the case of B4, the Kd [7] is reported as 2.2 nM.

B5: TAR 27-mer (oligomer 4) (ssRNA)
RNA: GGAGAUCUGAGCCUGGGAGCUCUCUCC
In the case of B5, the binding result [8] is reported as “binds” and the Kd [9] is reported as 0.41 nM.

B6: TAR conjugate 5A (ssRNA)
RNA: GGAGAUCUGAGCGCUCUCUCC
modifications: linker A -O-(CH2)9-O- replaces 6-nt loop between the two strands
Work on B6 yielded a Kd [10] of 0.71 nM.

B7: cyclic TAR conjugate oligomer 15 (ssRNA)
RNA: GGAGAUCUGAGCGCUCUCUCC
modifications: cyclic 21-mer, linker D at top and bottom of duplex
B7: binds [4].

B8: TAR conjugate 5BB (ssRNA)
RNA: GGAGAUCUGAGCGCUCUCUCC
modifications: two coupled linkers B replace 6-nt loop between the two strands
Work on B8 yielded a Kd [11] of 1.13 nM.
